One substance from PMC10329638 can be followed below.

In the experiment the target is rat ASIC3 wild type (rat) (UniProt O35240).
UniProt O35240, sequence (O35240 whole entry): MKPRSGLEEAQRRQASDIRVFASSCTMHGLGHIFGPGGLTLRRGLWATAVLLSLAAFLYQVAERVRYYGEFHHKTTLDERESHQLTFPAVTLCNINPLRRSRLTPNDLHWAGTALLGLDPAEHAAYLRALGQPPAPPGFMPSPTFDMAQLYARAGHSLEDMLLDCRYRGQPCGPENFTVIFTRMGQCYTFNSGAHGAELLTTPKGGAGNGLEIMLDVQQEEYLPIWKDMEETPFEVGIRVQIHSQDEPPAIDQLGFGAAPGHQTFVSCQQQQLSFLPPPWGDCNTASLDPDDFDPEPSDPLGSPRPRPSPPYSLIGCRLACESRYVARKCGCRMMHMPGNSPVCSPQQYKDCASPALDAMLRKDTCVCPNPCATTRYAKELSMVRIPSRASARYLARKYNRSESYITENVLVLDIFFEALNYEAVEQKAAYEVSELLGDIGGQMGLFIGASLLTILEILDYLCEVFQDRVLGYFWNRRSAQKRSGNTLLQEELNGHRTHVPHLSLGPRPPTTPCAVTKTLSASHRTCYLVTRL

For the substance “rat ASIC2a-H72N (from UniProt Q62962-1 1-512) (natural protein)”, the proton-gated currents of Xenopus oocytes co-expressing wild-type ASIC3 and mutant ASIC2a (two-electrode voltage clamp, pH 7.0 to 3) is > 1 µA.
